Experimental data as given in patent US20250320281A1.

Columns and labels:
Assay in all cases: cell-based or functional assay
[1] = target: HIV-1 APV6 Env (pseudovirus, clade B) (HIV-1)
[2] = target: HIV-1 Env of isolate 92RW024 (clade A pseudovirus) (HIV-1)
[3] = target: HIV-1 Env of isolate 98CN009 (HIV-1)
[4] = target: HIV-1 Env of isolate APV_17, clade B, on pseudovirus (HIV-1)
[5] = target: HIV-1 Env of isolate MGRM-Chronic-B-002, clade B, on pseudovirus (HIV-1)
[6] = target: HIV-1 Env of isolate MGRM-D-024 (clade D pseudovirus) (HIV-1)
[7] = target: HIV-1 Env of isolate MGRM-G-009 (HIV-1)
[8] = target: HIV-1 Env of isolate MGRM-G-028 (HIV-1)
[9] = target: HIV-1 Env of pseudovirus MGRM-AE-001 (clade CRF01_AE) (HIV-1)
[10] = target: HIV-1 Env of pseudovirus MGRM-AE-005 (clade CRF01_AE) (HIV-1)
[11] = target: HIV-1 Env of pseudovirus MGRM-AG-012 (clade CRF_AG) (HIV-1)
[12] = target: HIV-1 Env of pseudovirus MGRM-Chronic-B-024 (HIV-1)
[13] = target: HIV-1 Env of pseudovirus MGRM-G-011 (HIV-1, clade G isolate MGRM-G-011)
[14] = target: HIV-1 IAVI-C18 envelope glycoprotein (Env) on pseudovirus (HIV-1)
[15] = target: HIV-1 envelope glycoprotein (Env) of isolate 92RW008, clade A (HIV-1)
[16] = target: HIV-1 Env of isolate 92UG046 (pseudovirus) (HIV-1)
[17] = target: HIV-1 Env of isolate APV_6 (subtype B pseudovirus) (HIV-1)
[18] = target: HIV-1 Env of isolate MGRM-AG-009 (HIV-1)
[19] = target: HIV-1 Env of isolate MGRM-C-027 (HIV-1)
[20] = target: HIV-1 Env of isolate MGRM-Chronic-B-002 (subtype B pseudovirus) (HIV-1)
[21] = target: HIV-1 Env of isolate MGRM-Chronic-B-008 (subtype B pseudovirus) (HIV-1)
[22] = target: HIV-1 Env of isolate MGRM-D-011 (pseudovirus) (HIV-1)
[23] = target: HIV-1 Env of isolate MGRM-D-012 (pseudovirus) (HIV-1)
[24] = target: HIV-1 APV13 Env (pseudovirus) (HIV-1)
[25] = target: HIV-1 Env of pseudovirus isolate MGRM-G-024 (HIV-1)
[26] = target: HIV-1 Env of pseudovirus isolate MGRM-G-025 (HIV-1)
[27] = target: HIV-1 Env of isolate 92TH021 (subtype AE) (HIV-1)
[28] = target: HIV-1 Env of isolate MGRM-AE-003 (subtype AE) (HIV-1)
[29] = target: HIV-1 Env of isolate MGRM-AE-006 (subtype AE) (HIV-1)
[30] = target: aMLV envelope (negative control pseudovirus)
[31] = target: HIV-1 Env of isolate 92TH021 (pseudovirus) (HIV-1)
[32] = target: HIV-1 Env of isolate JR-CSF (pseudovirus) (HIV-1) (UniProt P20871)
[33] = target: HIV-1 Env of isolate MG RM-D-020 (HIV-1)
[34] = target: HIV-1 Env of isolate MG RM-D-022 (HIV-1)

Chain of 4993_K13 (PGT-141) (antibody) (VH): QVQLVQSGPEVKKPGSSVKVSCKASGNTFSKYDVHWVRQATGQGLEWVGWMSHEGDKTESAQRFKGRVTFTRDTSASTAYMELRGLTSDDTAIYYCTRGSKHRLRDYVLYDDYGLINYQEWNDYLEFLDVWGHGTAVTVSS
Chain of 4993_K13 (PGT-141) (antibody) (VL): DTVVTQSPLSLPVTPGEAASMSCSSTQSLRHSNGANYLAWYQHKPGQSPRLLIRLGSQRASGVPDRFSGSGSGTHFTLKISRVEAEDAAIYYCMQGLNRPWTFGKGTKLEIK
Chain of 4995_E20 (PGT-142) (antibody) (VH): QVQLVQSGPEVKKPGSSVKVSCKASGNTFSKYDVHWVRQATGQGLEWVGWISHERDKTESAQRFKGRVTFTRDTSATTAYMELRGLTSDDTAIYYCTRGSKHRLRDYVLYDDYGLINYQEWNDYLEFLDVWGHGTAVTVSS
Chain of 4970_K22 (PGT-144) (antibody) (VH): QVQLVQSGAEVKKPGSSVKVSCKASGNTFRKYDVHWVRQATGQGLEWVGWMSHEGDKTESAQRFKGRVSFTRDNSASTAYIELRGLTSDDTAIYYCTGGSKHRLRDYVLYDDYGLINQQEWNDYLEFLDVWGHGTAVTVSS
Chain of 4970_K22 (PGT-144) (antibody) (VL): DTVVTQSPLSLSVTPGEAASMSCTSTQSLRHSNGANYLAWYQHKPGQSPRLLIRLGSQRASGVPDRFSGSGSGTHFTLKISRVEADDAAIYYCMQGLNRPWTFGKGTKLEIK
Chain of 4980_N08 (PGT-143) (antibody) (VH): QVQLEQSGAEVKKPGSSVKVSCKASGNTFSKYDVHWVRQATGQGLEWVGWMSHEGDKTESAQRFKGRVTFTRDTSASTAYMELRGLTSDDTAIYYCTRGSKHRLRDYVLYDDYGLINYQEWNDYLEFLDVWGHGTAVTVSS
Chain of 4980_N08 (PGT-143) (antibody) (VL): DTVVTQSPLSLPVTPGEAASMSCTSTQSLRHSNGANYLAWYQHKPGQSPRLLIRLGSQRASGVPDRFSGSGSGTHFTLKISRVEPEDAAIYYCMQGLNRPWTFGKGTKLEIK

Row | Substance | IC50 (µg/mL), pseudovirus neutralization [7] [µg/mL] | IC50 (µg/mL), pseudovirus neutralization [8] [µg/mL] | IC50, pseudovirus neutralization [16] [µg/mL] | IC50 (µg/mL), pseudovirus neutralization [17] [µg/mL] | IC50 [18] [µg/mL] | neutralization IC50 [19] [µg/mL] | IC50 (µg/mL), pseudovirus neutralization [20] [µg/mL] | IC50 (µg/mL), pseudovirus neutralization [21] [µg/mL] | IC50, pseudovirus neutralization [22] [µg/mL] | IC50, pseudovirus neutralization [23] [µg/mL] | IC50 (neutralizing activity, pseudovirus) [24] [µg/mL] | IC50 (µg/mL), pseudovirus neutralization [27] [µg/mL] | IC50 (µg/mL), pseudovirus neutralization [28] [µg/mL] | IC50 (µg/mL), pseudovirus neutralization [29] [µg/mL] | IC50 (neutralizing activity, pseudovirus) [30] [µg/mL] | IC50 (µg/mL), pseudovirus neutralization [30] [µg/mL] | also measured
1 | 1496_C09 (PG9) (TCN-109) (antibody) | 10.7 | 0.891 |  |  |  |  |  |  |  |  |  |  |  |  |  |  | IC50 neutralization [1]: 0.214 µg/mL; IC50 (µg/ml), pseudovirus neutralization [2]: 0.18 µg/mL; IC50 [3]: 0.371 µg/mL; IC50 (µg/ml), pseudovirus neutralization [4]: 14.6 µg/mL; IC50 (µg/ml), pseudovirus neutralization [5]: 1.41 µg/mL; IC50 (µg/ml), pseudovirus neutralization [6]: 0.03 µg/mL; IC50 [9]: 2.97 µg/mL; IC50 [10]: 0.16 µg/mL; IC50 [11]: 1.37 µg/mL; IC50 (µg/ml), pseudovirus neutralization [12]: 0.18 µg/mL; IC50 (µg/ml), pseudovirus neutralization [13]: 0.19 µg/mL; IC50, pseudovirus neutralization [14]: 0.0535 µg/mL; IC50 (µg/ml), pseudovirus neutralization [15]: 0.01 µg/mL
2 | 4838_L06 (PGT-121) (antibody) |  |  | > 50 | 0.018 | 0.08 | 0.011 | 0.386 | 0.007 | 0.018 | > 50 |  |  |  |  |  |  | 
3 | 4877_D15 (PGT-122) (antibody) |  |  | > 50 | 0.019 | 0.128 | 0.039 | 1.8 | 0.017 | 0.019 | > 50 |  |  |  |  |  |  | neutralization IC50 (pseudovirus) [24]: 0.992 µg/mL; IC50 neutralization [1]: 0.0851 µg/mL; IC50 (µg/mL), pseudovirus neutralization [25]: 0.033 µg/mL; IC50 (µg/mL), pseudovirus neutralization [26]: 0.079 µg/mL
4 | 4970_K22 (PGT-144) (antibody) | > 50 | > 50 |  |  |  |  |  |  |  |  | > 10 | 0.052 | > 50 | > 50 | > 10 | > 50 | 
5 | 4980_N08 (PGT-143) (antibody) | 2.97 | 43 |  |  |  |  |  |  |  |  | > 10 | 0.003 | > 50 | > 50 | > 10 | > 50 | 
6 | 4993_K13 (PGT-141) (antibody) | 1.89 | 24.9 |  |  |  |  |  |  |  |  | > 10 | 0.001 | > 50 | > 50 | > 10 | > 50 | 
7 | 4995_E20 (PGT-142) (antibody) | 2.81 | 30.3 |  |  |  |  |  |  |  |  | > 10 | 0.002 | > 50 | > 50 | > 10 | > 50 | 
8 | 5145_B14 (PGT-127) (antibody) |  |  | > 50 | 0.04 | 0.059 | > 50 | 0.279 | 21.5 | 0.015 | > 50 |  |  |  |  |  |  | Polyclonal Transfectant Neutralization Index [31]: 0.94; Primary Neutralization Index (B cell culture supernatant) [31]: 1; Polyclonal Transfectant Neutralization Index [32]: 1.61; Primary Neutralization Index (B cell culture supernatant) [32]: 31.1; IC50 (µg/mL), pseudovirus neutralization [25]: > 50 µg/mL; IC50 (µg/mL), pseudovirus neutralization [26]: 19.3 µg/mL
9 | PGV04 (antibody) | 0.043 | 0.352 |  |  |  |  |  |  |  |  |  |  |  |  |  | > 50 | IC50 [3]: 0.0125 µg/mL
10 | VRC01 (antibody) | 0.073 | 0.164 |  |  |  |  |  |  |  |  |  | 0.616 | 0.685 | 4.65 |  | > 50 | IC50 [33]: 0.192 µg/mL; IC50 [34]: > 50 µg/mL; IC50 (µg/mL), pseudovirus neutralization [19]: 0.125 µg/mL
